Measured values from US7160981B2, “Peptide antagonists of DP transcription factors” (Prolifix Limited, priority 1996, dated 2007).

Assays:
DP-1/E2F-2 heterodimer = molecular target: T1, DP-1/E2F-2 heterodimer (Homo sapiens, UniProt Q14209); experiment: binding assay: GST-E2F-2 bound to in vitro translated DP-1; conditions: peptide 5 nmol, 1 nmol, 100 pmol
T1 construct: GST (N); made in house; host or cells: GST fusion purified on glutathione Sepharose; DP-1 made by in vitro translation
Description: (§1) FIG. 2 illustrates that peptides containing DEF box sequence prevent DP-1 forming a heterodimer with E2F family members. The ability of in vitro translated DP-1 (indicated by bracket) to bind to GST-E2F-1 (tracks 1,2,3 and 4), GST-E2F-2 (5,6,7 and 8) or GST-E2F-3 (9,10,11 and 12) in the absence (tracks 1,5 and 9) or presence of decreasing levels of peptide H (5 nmol; tracks 2,6 and 10; 1 nmol tracks 3,7 and 11 or 100 pmol tracks 4,8 and 12).
(§2) In the second, the activity of the DEF box antagonist peptide H was assessed on heterodimers formed between DP-1 and the other E2F family members, E2F-2 and E2F-3, which show high conservation with E2F-1 across the DEF box. […] We conclude therefore that peptides representing sequence derived from the DEF box function as specific antagonists of the DP-1/E2F heterodimer.
(§3) GST-E2F-1, E2F-2, E2F-3 and pRb have been described previously (27,31,32) and were purified to homogeneity using glutathione Sepharose. In vitro translated DP-1, DP-1^172/173, E2F-1 and E1a were translated as described previously (27,31,32).

ATF DNA binding activity = experiment: gel retardation, ATF site (specificity control); assay type: biochemical; conditions: similar conditions as E2F assay
Experimental: (§4) In a similar fashion to its effect upon the in vitro formed activity, the physiological DNA binding activity in F9 EC cell extracts was inactivated upon titration of peptide H (using the same concentrations mentioned above), but not by H1. This effect was specific for E2F since no effect on the unrelated DNA binding activity ATF was observed under similar conditions.
(§5) Gel retardation was performed using 5 to 10 μg of either F9 EC or JM cell extract with either an E2F or ATF site as previously described (15). Where fusion proteins were used, about 25 ng of either DP-1 or E2F-1 were used in each binding assay. For in vitro translates, about 6 μl of the translation mix was used in each binding assay. Gel retardation with an E2F binding site taken from the adenovirus E2a promoter was as previously described (15).

[1] = molecular target: T2, pRb / adenovirus E1a protein interaction (Homo sapiens, UniProt P06400); experiment: specificity control: binding of pRb to in vitro translated adenovirus E1a protein; conditions: unrelated protein-protein interaction control
T2 construct: GST; made in house; host or cells: pRb fusion purified on glutathione Sepharose; E1a made by in vitro translation
T2 sequence (P06400 1-928): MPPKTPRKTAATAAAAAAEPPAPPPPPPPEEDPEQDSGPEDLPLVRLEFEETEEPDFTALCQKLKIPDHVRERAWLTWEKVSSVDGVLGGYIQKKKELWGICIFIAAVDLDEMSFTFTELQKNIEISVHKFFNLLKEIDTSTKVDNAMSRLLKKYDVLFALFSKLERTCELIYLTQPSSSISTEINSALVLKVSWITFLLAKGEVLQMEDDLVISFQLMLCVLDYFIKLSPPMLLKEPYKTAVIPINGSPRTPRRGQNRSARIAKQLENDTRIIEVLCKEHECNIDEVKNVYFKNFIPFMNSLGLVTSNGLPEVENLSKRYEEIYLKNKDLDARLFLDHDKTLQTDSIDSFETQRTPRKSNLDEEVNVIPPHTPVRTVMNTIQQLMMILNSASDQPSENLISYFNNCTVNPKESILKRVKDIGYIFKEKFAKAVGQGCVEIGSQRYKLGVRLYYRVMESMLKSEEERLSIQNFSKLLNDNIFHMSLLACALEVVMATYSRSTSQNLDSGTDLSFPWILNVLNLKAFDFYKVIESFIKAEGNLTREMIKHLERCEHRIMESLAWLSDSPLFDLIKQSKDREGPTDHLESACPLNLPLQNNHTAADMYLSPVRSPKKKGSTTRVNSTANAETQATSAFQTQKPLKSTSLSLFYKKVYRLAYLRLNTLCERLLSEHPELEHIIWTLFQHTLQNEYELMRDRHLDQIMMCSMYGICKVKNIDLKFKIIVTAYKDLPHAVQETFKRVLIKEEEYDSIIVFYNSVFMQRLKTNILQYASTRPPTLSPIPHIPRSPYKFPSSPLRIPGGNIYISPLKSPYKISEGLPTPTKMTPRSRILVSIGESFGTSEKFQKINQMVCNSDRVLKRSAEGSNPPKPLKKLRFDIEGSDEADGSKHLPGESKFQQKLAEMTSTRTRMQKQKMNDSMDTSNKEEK
Experimental: To evaluate the specificity of this effect, we undertook two controls. Firstly, the effect of DEF box derived peptides on an unrelated but well characterised protein-protein interaction was assessed, namely the binding of pRb to the adenovirus E1a protein (34). The E1a protein, when provided in the assay as an in vitro translate, specifically bound to pRb. […] Secondly, unrelated peptides representing other regions of DP-1 or subdomains of peptide H were assessed in the binding reaction. […] Overall, the results argue that peptide H antagonises the interaction between DP-1 and E2F-1 in the formation of a heterodimer.
as §3

[2] = test system: physiological E2F DNA binding activity (DP-1/E2F heterodimer) in F9 embryonal carcinoma cell extracts; experiment: gel retardation, E2F site, F9 EC cell extracts; assay type: biochemical
Description: Because the DEF box peptides can antagonise DNA binding activity of the DP-1/E2F heterodimer formed in vitro, we went on to establish their effects on physiological E2F. For this experiment, we used extracts prepared from F9 embryonal carcinoma (EC) cells, since these cells contain high levels of endogenous E2F DNA binding activity as a DP-1/E2F-heterodimer (26).
as §4, §5

DP-1/E2F-1 heterodimer = molecular target: T3, DP-1/E2F-1 heterodimer (Homo sapiens, UniProt Q01094); experiment: binding assay: GST-E2F-1 fusion protein bound to in vitro translated DP-1, peptide competition; conditions: peptide included in binding reaction
T3 construct: GST (N); made in house; DP-1 made by in vitro translation
Description: To determine the influence of the DEF box region upon the formation of the DP-1/E2F heterodimer, we used a binding assay in which E2F-1, expressed as a GST-E2F-1 fusion protein, bound to in vitro translated DP-1, an assay used previously to measure dimerization between DP and E2F proteins (31,32). Peptides were included in the binding reaction and their ability to compete with wild-type DP-1 for E2F-1 assessed by the amount of DP-1 which remained bound to the E2F-1 fusion protein.
as §3, §5

DP-1/E2F-3 heterodimer = molecular target: T4, DP-1/E2F-3 heterodimer (Homo sapiens, UniProt O00716); experiment: binding assay: GST-E2F-3 bound to in vitro translated DP-1; conditions: peptide 5 nmol, 1 nmol, 100 pmol
T4 construct: GST (N); made in house; host or cells: GST fusion purified on glutathione Sepharose; DP-1 made by in vitro translation
Description: as §1, §2, §3

[3] = molecular target: T5, E2F DNA binding activity of DP-1/E2F-1 heterodimer (Homo sapiens, UniProt Q01094); experiment: DP-1/E2F-1 DNA binding assay (gel retardation, bacterial fusion proteins); assay type: biochemical; conditions: peptide titrated 1, 0.5, 0.1, 0.01 nmol
T5 construct: GST (N); made in house; host or cells: bacterial
Description: Since the peptides function as antagonists of the formation of the DP/E2F heterodimer, we reasoned that they may also interfere with E2F DNA binding activity. To address this question, we determined whether the E2F DNA binding activity created in vitro from combining bacterial DP and E2F fusion proteins was affected by the peptides.
As previously shown, the interaction between DP-1 and E2F-1 leads to co-operative DNA binding activity. Peptide H (SEQ ID NO:1) was titrated into the DP-1/E2F-1 DNA binding assay, using 1 nmol, 0.5 nmol, 0.1 nmol and 0.01 nmol of peptide.
as §5

[4] = test system: E2F tumour cell line (E2F4 tumour cells); assay type: cell-based; conditions: 24 hours; 33 μM peptide, 33 μM etoposide
Experimental: After 24 hours random regions of the culture dish were examined and the percentage of nonviable cells determined by counting cells with an abnormal morphology.
At 24 hours post treatment cellular morphology was noted and those with a rounded abnormal appearance were scored as dead.
Cells were cultured as above.

[5] = test system: E2F site-dependent transcription; experiment: yeast E2F binding site reporter assay (p4xWT.CYC1); assay type: cell-based; conditions: A172 and L173 changed to glycine
Description: (§6) To study the role of the DEF box region in the context of the wild-type DP-1 protein, we took advantage of a yeast assay previously used to assess the properties of the DP-1/E2F heterodimer (23,31). When assayed in the context of two-hybrid proteins, with DP-1 is fused the LexA DNA binding domain and E2F-1 to the transcriptional activation domain of GAL4, transcriptional stimulation of a reporter construct driven by LEXA DNA binding sites was apparent only when both proteins were expressed together. Similarly, transcriptional activation of a reporter gene driven by physiological E2F DNA binding sites, in p4xWT.CYC1 (23,31), was dependent upon the presence of both proteins.
(§7) The yeast two-hybrid expression plasmids used were PLEX(HIS) which contains the complete LexA coding sequence, pGAD.L6 which contains the Gal 4 transcription activation domain. pLEX(HIS).DP-1 contains the murine DP-1 fused to the C-terminus of the LexA coding sequence and GAD.E2F-1 the human E2F-1 downstream of the Gal4 activation domain; all constructs were as described previously (23,31), apart from pLEX-DP-1/MT which contained DP-1 with residues 172 and 173 altered to glycine residues. Yeast strain CTY10-5d was used for the two-hybrid assay and W3031a, which carries p4xWT.CYC 1, for the E2F site-dependent transcription assay (23,31).

DP-1/E2F-1 interaction = molecular target: T6, DP-1/E2F-1 interaction (UniProt Q01094+Q08639, A172G/L173G); experiment: yeast two-hybrid assay LexA-DP-1 / GAL4 activation domain-E2F-1; assay type: cell-based; conditions: A172 and L173 changed to glycine
T6 construct: expressed in transfected cells; host or cells: yeast strain CTY10-5d
Description: as §6, §7

T4 sequence (O00716 whole entry, the tested form may be a part, one chain of several): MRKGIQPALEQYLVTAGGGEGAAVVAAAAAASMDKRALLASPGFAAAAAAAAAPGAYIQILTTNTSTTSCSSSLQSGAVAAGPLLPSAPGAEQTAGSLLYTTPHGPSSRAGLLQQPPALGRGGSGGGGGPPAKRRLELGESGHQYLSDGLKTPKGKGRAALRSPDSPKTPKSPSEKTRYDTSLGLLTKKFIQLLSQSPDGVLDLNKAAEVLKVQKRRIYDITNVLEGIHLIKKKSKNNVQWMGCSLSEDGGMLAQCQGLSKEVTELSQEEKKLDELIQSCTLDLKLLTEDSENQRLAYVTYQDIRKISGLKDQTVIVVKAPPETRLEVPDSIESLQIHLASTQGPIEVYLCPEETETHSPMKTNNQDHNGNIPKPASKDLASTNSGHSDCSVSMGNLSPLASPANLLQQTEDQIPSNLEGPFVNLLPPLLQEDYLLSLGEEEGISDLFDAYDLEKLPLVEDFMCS
T5 sequence (Q01094 whole entry, the tested form may be a part, one chain of several): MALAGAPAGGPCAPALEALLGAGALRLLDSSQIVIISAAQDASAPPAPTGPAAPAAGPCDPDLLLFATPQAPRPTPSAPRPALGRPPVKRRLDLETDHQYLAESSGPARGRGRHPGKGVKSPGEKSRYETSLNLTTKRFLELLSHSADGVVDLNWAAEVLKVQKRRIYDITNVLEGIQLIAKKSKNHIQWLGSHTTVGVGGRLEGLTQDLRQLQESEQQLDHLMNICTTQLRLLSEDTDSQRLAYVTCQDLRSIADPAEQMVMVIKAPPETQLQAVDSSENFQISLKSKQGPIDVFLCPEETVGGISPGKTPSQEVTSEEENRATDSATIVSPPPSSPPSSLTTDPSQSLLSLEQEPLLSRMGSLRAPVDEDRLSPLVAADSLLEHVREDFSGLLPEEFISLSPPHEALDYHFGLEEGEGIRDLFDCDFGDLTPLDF
T6 sequence (Q01094 whole entry, the tested form may be a part): as the sequence (Q01094 whole entry, the tested form may be a part, one chain of several) above
T6 sequence (Q08639 whole entry A172G/L173G, the tested form may be a part): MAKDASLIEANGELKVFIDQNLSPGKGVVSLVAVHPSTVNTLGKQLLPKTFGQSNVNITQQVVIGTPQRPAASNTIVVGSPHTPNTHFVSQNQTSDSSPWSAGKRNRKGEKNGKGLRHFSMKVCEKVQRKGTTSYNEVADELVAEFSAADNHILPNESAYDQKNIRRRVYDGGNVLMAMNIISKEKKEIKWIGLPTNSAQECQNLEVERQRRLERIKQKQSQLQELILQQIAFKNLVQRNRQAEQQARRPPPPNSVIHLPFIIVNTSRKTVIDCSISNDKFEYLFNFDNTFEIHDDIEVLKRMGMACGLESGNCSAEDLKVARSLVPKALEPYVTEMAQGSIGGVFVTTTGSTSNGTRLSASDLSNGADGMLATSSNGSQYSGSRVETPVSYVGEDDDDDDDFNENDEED
T3 sequence (Q01094 whole entry, the tested form may be a part, one chain of several): as the sequence (Q01094 whole entry, the tested form may be a part, one chain of several) above
T1 sequence (Q14209 whole entry, the tested form may be a part, one chain of several): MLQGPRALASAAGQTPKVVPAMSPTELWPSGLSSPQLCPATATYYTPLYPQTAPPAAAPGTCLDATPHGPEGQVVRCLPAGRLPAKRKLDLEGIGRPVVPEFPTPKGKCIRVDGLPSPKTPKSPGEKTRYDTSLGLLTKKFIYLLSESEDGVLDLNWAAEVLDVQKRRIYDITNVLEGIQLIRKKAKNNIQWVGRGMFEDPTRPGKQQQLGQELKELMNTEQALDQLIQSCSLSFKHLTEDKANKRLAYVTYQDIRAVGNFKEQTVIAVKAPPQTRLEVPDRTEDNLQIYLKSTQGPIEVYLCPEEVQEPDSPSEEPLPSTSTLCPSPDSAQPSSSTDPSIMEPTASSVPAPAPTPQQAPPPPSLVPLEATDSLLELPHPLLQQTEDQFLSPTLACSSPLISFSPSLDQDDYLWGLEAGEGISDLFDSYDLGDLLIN

KNIRRRVYDALNVLMAMNIISKEKKEIKWIGLPTNSA [Peptide H, complete DEF box region, residues 163 to 199 of DP-1, 37 residues]
effect on ability of E2F-2 to bind to DP-1 (DP-1/E2F-2 heterodimer): interfered specifically | effect on ATF DNA binding activity (ATF DNA binding activity): no effect | effect on binding of pRb to E1a [1]: no apparent effect | inactivation of E2F DNA binding activity in F9 EC cell extracts ([2]; F9 EC cell extract, peptide up to 1 nmol): inactivated | sensitivity of pocket protein-E2F complex relative to free E2F heterodimer ([2]; slower migrating E2F complex): less sensitive | effect on binding of DP-1 to E2F-1 (formation of DP-1/E2F-1 heterodimer) (DP-1/E2F-1 heterodimer): interfere with the binding efficiency of DP-1 and E2F-1 | effect on ability of E2F-3 to bind to DP-1 (DP-1/E2F-3 heterodimer): interfered specifically | inhibition of DP-1/E2F-1 DNA binding activity [3]: Clear inhibition of DNA binding activity

COc1cc([C@@H]2c3cc4c(cc3[C@@H](O[C@@H]3O[C@@H]5CO[C@@H](C)O[C@H]5[C@H](O)[C@H]3O)[C@H]3COC(=O)[C@H]23)OCO4)cc(OC)c1O [etoposide]
cell death (cells with rounded abnormal appearance scored as dead) [4]: approximately 15%

B1: DP-1^172/173: mutant DP-1 protein with residues A172 and L173 changed to glycine (protein, UniProt Q14186 1-410, looked up, variant A172G L173G)
Transcription factor Dp-1: MAKDAGLIEANGELKVFIDQNLSPGKGVVSLVAVHPSTVNPLGKQLLPKTFGQSNVNIAQQVVIGTPQRPAASNTLVVGSPHTPSTHFASQNQPSDSSPWSAGKRNRKGEKNGKGLRHFSMKVCEKVQRKGTTSYNEVADELVAEFSAADNHILPNESAYDQKNIRRRVYDGGNVLMAMNIISKEKKEIKWIGLPTNSAQECQNLEVERQRRLERIKQKQSQLQELILQQIAFKNLVQRNRHAEQQASRPPPPNSVIHLPFIIVNTSKKTVIDCSISNDKFEYLFNFDNTFEIHDDIEVLKRMGMACGLESGSCSAEDLKMARSLVPKALEPYVTEMAQGTVGGVFITTAGSTSNGTRFSASDLTNGADGMLATSSNGSQYSGSRVETPVSYVGEDDEEDDDFNENDEDD
reduction of response of E2F binding site reporter [5]: about 50% | reduction of activity relative to wild-type DP-1 in two-hybrid assay (DP-1/E2F-1 interaction): about 50%
